{
  "source": "patent US20040219163",
  "target": "prostate-specific antigen (PSA) (UniProt P07288)",
  "sequence (P07288 25-261)": "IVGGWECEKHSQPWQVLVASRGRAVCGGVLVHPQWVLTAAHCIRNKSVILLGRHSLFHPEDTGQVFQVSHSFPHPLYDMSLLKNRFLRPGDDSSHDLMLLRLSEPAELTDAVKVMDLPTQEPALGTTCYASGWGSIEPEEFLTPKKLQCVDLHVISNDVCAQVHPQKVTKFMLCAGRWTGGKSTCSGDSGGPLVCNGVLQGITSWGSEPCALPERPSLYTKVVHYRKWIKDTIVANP",
  "data": [
    {"substance": "Human glandular kallikrein (hK2)", "values": [
      {"measurement": "PSA enzymatic activity on chromogenic substrate S-2586 (absorbance at 405 nm); 100 ng hK2 added to 2.5 ug PSA from L1/PSA/IL2 supernatant", "value": "The activity of PSA is increased 500% when incubated with hK2"}
    ]}
  ]
}
